Experimental data taken from patent US20150045540A1 (published 2015).

T1: Placenta Growth Factor (PlGF), human (human, UniProt P49763 21-149)
T1 chain: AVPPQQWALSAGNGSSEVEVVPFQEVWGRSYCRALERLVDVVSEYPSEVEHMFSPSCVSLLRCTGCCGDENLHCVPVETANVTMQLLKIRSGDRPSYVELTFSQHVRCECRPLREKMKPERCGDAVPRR

B1: HC 2/SLC 8 (antibody)
chain 1: GQGTLVTVSSASQPVLHQPPAMSSALGTTIRLTCTLRNDHDIGVYSVYWYQQRPGHPPRFLLRYFSQSDKSQGPQVPPRFSGSKDVARNRGYLSISELQPEDEAMYYCAMGARSRCWPRGFQSKHNSVTHVFGSGTQLTVLSQPKATPSVTLFPPSSEELQANKATLVCLMNDFYPGILTVTWKADGTPITQGVEMTTPSKQSNNKYAASSYLSLTPEQWRSRRSYSCQVMHEGSTVEKTVAPAECS
chain 2: MSWAPVLLMLFVYCTGCGPQPVLHQPPAMSSALGTTIRLTCTLRNDHDIGVYSVYWYQQRPGHPPRFLLRYFSQSDKSQGPQVPPRFSGSKDVARNRGYLSISVTHVFGSGTQLTVLSQPKATPSQVQLVQ
B2: HC 6/SLC 8 (antibody)
chain 1: GQGTLVTVSSASTKGPQPVLHQPPAMSSALGTTIRLTCTLRNDHDIGVYSVYWYQQRPGHPPRFLLRYFSQSDKSQGPQVPPRFSGSKDVARNRGYLSISELQPEDEAMYYCAMGARSRCWPRGFQSKHNSVTHVFGSGTQLTVLSQPKATPSVTLFPPSSEELQANKATLVCLMNDFYPGILTVTWKADGTPITQGVEMTTPSKQSNNKYAASSYLSLTPEQWRSRRSYSCQVMHEGSTVEKTVAPAECS
chain 2: B1 chain 2
B3: HC 10/SLC 8 (antibody)
chain 1: GQGTLVTVSSASTKGPSVFPQPVLHQPPAMSSALGTTIRLTCTLRNDHDIGVYSVYWYQQRPGHPPRFLLRYFSQSDKSQGPQVPPRFSGSKDVARNRGYLSISELQPEDEAMYYCAMGARSRCWPRGFQSKHNSVTHVFGSGTQLTVLSQPKATPSVTLFPPSSEELQANKATLVCLMNDFYPGILTVTWKADGTPITQGVEMTTPSKQSNNKYAASSYLSLTPEQWRSRRSYSCQVMHEGSTVEKTVAPAECS
chain 2: B1 chain 2
B4: HC 5/SLC 7 (antibody)
chain 1: GQGTLVTVSSASTKGQPVLHQPPAMSSALGTTIRLTCTLRNDHDIGVYSVYWYQQRPGHPPRFLLRYFSQSDKSQGPQVPPRFSGSKDVARNRGYLSISELQPEDEAMYYCAMGARSRCWPRGFQSKHNSVTHVFGSGTQLTVLSQPKATPSVTLFPPSSEELQANKATLVCLMNDFYPGILTVTWKADGTPITQGVEMTTPSKQSNNKYAASSYLSLTPEQWRSRRSYSCQVMHEGSTVEKTVAPAECS
chain 2: MSWAPVLLMLFVYCTGCGPQPVLHQPPAMSSALGTTIRLTCTLRNDHDIGVYSVYWYQQRPGHPPRFLLRYFSQSDKSQGPQVPPRFSGSKDVARNRGYLSISVTHVFGSGTQLTVLSQPKATPQVQLVQ
B5: HC 5/SLC 6 (antibody)
chain 1: B4 chain 1
chain 2: MSWAPVLLMLFVYCTGCGPQPVLHQPPAMSSALGTTIRLTCTLRNDHDIGVYSVYWYQQRPGHPPRFLLRYFSQSDKSQGPQVPPRFSGSKDVARNRGYLSISVTHVFGSGTQLTVLSQPKATQVQLVQ
B6: HC 3/SLC 7 (antibody)
chain 1: GQGTLVTVSSASTQPVLHQPPAMSSALGTTIRLTCTLRNDHDIGVYSVYWYQQRPGHPPRFLLRYFSQSDKSQGPQVPPRFSGSKDVARNRGYLSISELQPEDEAMYYCAMGARSRCWPRGFQSKHNSVTHVFGSGTQLTVLSQPKATPSVTLFPPSSEELQANKATLVCLMNDFYPGILTVTWKADGTPITQGVEMTTPSKQSNNKYAASSYLSLTPEQWRSRRSYSCQVMHEGSTVEKTVAPAECS
chain 2: B4 chain 2
B7: HC 5/SLC 2 (antibody)
chain 1: B4 chain 1
chain 2: MSWAPVLLMLFVYCTGCGPQPVLHQPPAMSSALGTTIRLTCTLRNDHDIGVYSVYWYQQRPGHPPRFLLRYFSQSDKSQGPQVPPRFSGSKDVARNRGYLSISVTHVFGSGTQLTVLSQQVQLVQ
B8: HC 5/SLC 15 (antibody)
chain 1: B4 chain 1
chain 2: MSWAPVLLMLFVYCTGCGPQPVLHQPPAMSSALGTTIRLTCTLRNDHDIGVYSVYWYQQRPGHPPRFLLRYFSQSDKSQGPQVPPRFSGSKDVARNRGYLSISVTHVFGSGTQLTVLSQPKATPSVTGGGGSQVQLVQ
B9: HC 7/SLC 9 (antibody)
chain 1: GQGTLVTVSSASTKGPSQPVLHQPPAMSSALGTTIRLTCTLRNDHDIGVYSVYWYQQRPGHPPRFLLRYFSQSDKSQGPQVPPRFSGSKDVARNRGYLSISELQPEDEAMYYCAMGARSRCWPRGFQSKHNSVTHVFGSGTQLTVLSQPKATPSVTLFPPSSEELQANKATLVCLMNDFYPGILTVTWKADGTPITQGVEMTTPSKQSNNKYAASSYLSLTPEQWRSRRSYSCQVMHEGSTVEKTVAPAECS
chain 2: MSWAPVLLMLFVYCTGCGPQPVLHQPPAMSSALGTTIRLTCTLRNDHDIGVYSVYWYQQRPGHPPRFLLRYFSQSDKSQGPQVPPRFSGSKDVARNRGYLSISVTHVFGSGTQLTVLSQPKATPSVQVQLVQ
B10: HC 2/SLC 9 (antibody)
chain 1: B1 chain 1
chain 2: B9 chain 2
B11: HC 7/SLC 4 (antibody)
chain 1: B9 chain 1
chain 2: MSWAPVLLMLFVYCTGCGPQPVLHQPPAMSSALGTTIRLTCTLRNDHDIGVYSVYWYQQRPGHPPRFLLRYFSQSDKSQGPQVPPRFSGSKDVARNRGYLSISVTHVFGSGTQLTVLSQPKQVQLVQ
B12: HC 7/SLC 15 (antibody)
chain 1: B9 chain 1
chain 2: B8 chain 2
B13: HC 7/SLC 5 (antibody)
chain 1: B9 chain 1
chain 2: MSWAPVLLMLFVYCTGCGPQPVLHQPPAMSSALGTTIRLTCTLRNDHDIGVYSVYWYQQRPGHPPRFLLRYFSQSDKSQGPQVPPRFSGSKDVARNRGYLSISVTHVFGSGTQLTVLSQPKAQVQLVQ
B14: HC 9/SLC 9 (antibody)
chain 1: GQGTLVTVSSASTKGPSVFQPVLHQPPAMSSALGTTIRLTCTLRNDHDIGVYSVYWYQQRPGHPPRFLLRYFSQSDKSQGPQVPPRFSGSKDVARNRGYLSISELQPEDEAMYYCAMGARSRCWPRGFQSKHNSVTHVFGSGTQLTVLSQPKATPSVTLFPPSSEELQANKATLVCLMNDFYPGILTVTWKADGTPITQGVEMTTPSKQSNNKYAASSYLSLTPEQWRSRRSYSCQVMHEGSTVEKTVAPAECS
chain 2: B9 chain 2

Molecular target: T1, Placenta Growth Factor (PlGF), human
Test: ELISA

Row | EC50 [nM] | Binder
1 | 0.119 | B1
2 | 0.073 | B2
3 | 0.046 | B3
4 | 0.129 | B4
5 | 0.157 | B5
6 | 0.159 | B6
7 | 0.197 | B7
8 | 0.049 | B8
9 | 0.057 | B9
10 | 0.195 | B10
11 | 0.204 | B11
12 | 0.052 | B12
13 | 0.283 | B13
14 | 0.046 | B14

molecular target: Hepatocyte Growth Factor (HGF), human (human, UniProt P14210 32-728); test: ELISA
Sequence (P14210 32-728): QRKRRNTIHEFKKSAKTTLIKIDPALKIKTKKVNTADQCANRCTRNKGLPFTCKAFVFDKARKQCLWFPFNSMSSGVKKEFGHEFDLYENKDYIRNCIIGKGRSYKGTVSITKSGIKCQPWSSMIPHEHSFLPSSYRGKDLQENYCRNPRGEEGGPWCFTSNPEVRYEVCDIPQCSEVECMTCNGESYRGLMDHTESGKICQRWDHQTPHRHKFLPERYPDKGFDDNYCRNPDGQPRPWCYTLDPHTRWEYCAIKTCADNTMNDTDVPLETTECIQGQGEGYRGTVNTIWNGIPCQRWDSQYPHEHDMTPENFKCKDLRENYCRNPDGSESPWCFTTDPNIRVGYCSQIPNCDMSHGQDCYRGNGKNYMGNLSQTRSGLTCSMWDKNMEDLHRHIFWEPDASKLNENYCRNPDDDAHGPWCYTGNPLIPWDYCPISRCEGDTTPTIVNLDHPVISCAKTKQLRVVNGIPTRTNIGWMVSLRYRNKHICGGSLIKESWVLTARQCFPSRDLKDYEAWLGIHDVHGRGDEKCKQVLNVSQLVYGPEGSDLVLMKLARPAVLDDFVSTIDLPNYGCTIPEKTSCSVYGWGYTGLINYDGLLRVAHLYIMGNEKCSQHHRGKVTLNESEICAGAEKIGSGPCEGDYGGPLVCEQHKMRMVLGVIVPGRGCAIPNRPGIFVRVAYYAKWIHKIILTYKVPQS

Row | EC50 [nM] | Binder
15 | 0.046 | B1
16 | 0.059 | B2
17 | 0.048 | B3
18 | 0.056 | B4
19 | 0.059 | B5
20 | 0.054 | B6
21 | 0.051 | B7
22 | ~0.041 | B8
23 | 0.048 | B9
24 | 0.063 | B10
25 | 0.065 | B11
26 | 0.053 | B12
27 | 0.056 | B13
28 | 0.058 | B14
